Tests used:
[1] = biological target: T1, huZIP12-ECD-GST (human, UniProt Q504Y0 24-202); test: SPR single cycle kinetics (Biacore): mAb captured on protein A, ZIP12-ECD-GST injected; average data
T1 construct: also called hZIP12-ECD-GST; human ZIP12-ECD-GST; not shown: glutathione S-transferase (GST) tag

[2] = biological target: T2, cynomolgus monkey ZIP12-ECD-GST (cynomolgus monkey, UniProt Q95KA5 24-207); test: as above
T2 construct: extracellular domain; also called cyno ZIP12 fusion protein; cynomolgus monkey ZIP12-GST-ECD; not shown: glutathione S-transferase (GST) tag
T2 sequence (Q95KA5 24-207): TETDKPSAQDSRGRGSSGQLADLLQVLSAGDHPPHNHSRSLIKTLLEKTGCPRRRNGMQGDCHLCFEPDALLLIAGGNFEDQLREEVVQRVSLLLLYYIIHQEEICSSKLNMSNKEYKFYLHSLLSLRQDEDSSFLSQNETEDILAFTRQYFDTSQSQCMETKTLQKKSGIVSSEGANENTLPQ

[3] = biological target: T1, huZIP12-ECD-GST; test: SPR single cycle kinetics, mAb captured on protein A, ZIP12-ECD-GST injected; human ZIP12-ECD-GST; Example 8 cross-species SCK (FIG. 12 average)
Text: Surface plasmon resonance (SPR) is a label free biophysical technique that allows the direct measurement of biomolecular interactions. A single cycle kinetics (SCK) SPR direct binding assay was developed to characterise antibody binding to human, cyno, pig and canine ZIP12 fusion proteins. This assay was used to characterise the binding kinetics of the monoclonal antibody, 51B12 W99H_L1 against each of the four proteins (defined by kon, koff, KD). Single Cycle Kinetics (SCK) involves first capturing the mAb onto the protein A sensor surface and then sequentially injecting a series of concentrations of ZIP12-ECD-GST over the surface starting at the lowest concentration and ending with the highest concentration. The final concentration is followed by a dissociation phase where buffer only is passed across the surface followed by regeneration, where the remaining bound huZIP12-ECD-GST is removed from the surface by injection of a 10 mM Glycine pH 1.5 and 50 mM NaOH solution. The SCK is repeated for each monoclonal antibody providing duplicate data and the kinetics of each interaction is evaluated by the Biacore software.

[4] = biological target: T1, huZIP12-ECD-GST; test: SPR single cycle kinetics, mAb captured on protein A, 3.12-800 nM huZIP12-ECD-GST
Method: (§1) Single Cycle Kinetics (SCK) involves first capturing the mAb onto the protein A sensor surface and then sequentially injecting a series of concentrations of huZIP12-ECD-GST over the surface starting at the lowest concentration and ending with the highest concentration. The final concentration is followed by a dissociation phase where buffer only is passed across the surface followed by regeneration, where the remaining bound huZIP12-ECD-GST is removed from the surface by injection of a 10 mM Glycine pH 1.5 and 50 mM NaOH solution. The SCK is repeated for each monoclonal antibody providing duplicate data and the kinetics of each interaction is evaluated by the Biacore software.
(§2) Referring to FIG. 6, there are shown the kinetic parameters obtained for all antibody variants when screened with the 3.12 nM to 800 nM huZIP12-ECD-GST. […] Affinity.

[5] = biological target: T1, huZIP12-ECD-GST; test: SPR single cycle kinetics (Biacore): mAb captured on protein A, huZIP12-ECD-GST injected at 2.34-600 nM, extended dissociation
Method: as §1
A selection of the higher affinity antibody variants were re-tested at a lower concentration series with an extended dissociation time with the objective of obtaining a better assessment of the binding kinetics. Referring now to FIG. 7, there are shown the data for the monoclonal antibodies that were re-tested to optimise the binding kinetic data. Once again, three antibody variants, H3_W99H_L1, H3_W99HL2 and H3_W99H_VL-par, all appear to have a higher affinity than the parent antibody. The on-rate (ka), off-rate (kd) and overall affinity measurement (KD) are all improved compared to the 51B12 VH_VL_par parent antibody.

[6] = biological target: T1, huZIP12-ECD-GST; test: SPR single cycle kinetics (Biacore): mAb captured on protein A, huZIP12-ECD-GST injected at 3.12-800 nM
Method: as §1, §2

T1 sequence (Q504Y0 24-202): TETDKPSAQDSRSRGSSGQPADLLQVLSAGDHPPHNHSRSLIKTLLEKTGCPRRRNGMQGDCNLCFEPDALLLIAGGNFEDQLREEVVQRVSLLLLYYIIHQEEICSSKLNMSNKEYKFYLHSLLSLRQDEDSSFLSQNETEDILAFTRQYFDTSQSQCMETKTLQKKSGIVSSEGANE

koff [1]: 0.000261 s⁻¹
kon [1]: 64900 M⁻¹ s⁻¹
koff [2]: 0.000218 s⁻¹
kon [2]: 34600 M⁻¹ s⁻¹
Kd [3]: 4.02 nM
Kd [4]: ~0.5 nM
Kd [5]: 0.314 nM
koff [5]: 3.14e-05 s⁻¹
kon [5]: 99900 M⁻¹ s⁻¹
Kd [6]: 0.533 nM
koff [6]: 4.98e-05 s⁻¹
kon [6]: 93400 M⁻¹ s⁻¹
B1: H3_W99H_L1 (antibody, V domains shown)
VH: QVQLVESGGGVVQPGRSLRLSCAASGFTFSDYGMHWVRQAPGKGLEWVAYISSGGTTIYYADTVKGRFTISRDNSKNTLYLQMNSLRAEDTAVYYCARHTNLYAMDYWGQGTTVTVSS
VL: DIVLTQSPDSLAVSLGERATINCRASKSVSTQGYSYMHWYQQKPGQPPKFLIYLASNLESGVPDRFSGSGSGTDFTLTISSLQAEDVAVYYCQHSREVPYTFGGGTKVEIKR
notes: Fc null human IgG1 / human kappa

Reference: patent US20260109761A1 (IP2IPO INNOVATIONS, published 2026)
